Measurements published in the DeepSol protein solubility set.

experiment: soluble on expression in E. coli; label from the status in PepcDB or PDB records

Sequence | soluble on expression in E. coli
RLVLAGNGMAGIRCIEEVLKLNRHMFEIVIFGSEPHPNYNRILLSSVLQGEASLDDITLNSKDWYDKHGITLYTGETVIQIDTDQQQVITDRKRTLSYDKLIVATGSSPHILPIPGADKKGVYGFRTIEDCQALMNMAQHFQKAAVIGAGLLGLEAAVGLQHLGMDVSVIHHSAGIMQKQLDQTAARLLQTELEQKGLTFLLEKDTVSISGATKADRIHFKDGSSLKADLIVMAAGVKPNIELAVSAGIKVNRGIIVNDFMQTSEPNIYAVGECAEHNGTVYGLVAPLYEQGKALASHICGVPCEEYQGSAPSAALKIAGIDVWSAGKIQEDERTTSIKIYDEQAGVYKKALFVDDKLRVILFGDTRDKQRLLDSLLKQRDISIAKKQIIEPETSGPLFESMPSSETICQCNTVTKGAIEDAVHTNSLTTVEEVKHCTKATGSCGGCKPLVEDLLRYMTNSEYTKPASTPSFCSCTDFTEDDIIAELQRRPFTNPAEVMNQLDWKTKNGCSTCVPAIQYYLEMLYPGFVQPEPATEETCILIPQMYGGRTNAEQLRTIANIIEAYSIPDVSITHGQRLKLSGIKPADLPNMKKDLKMPVYTNEHRHALQSIKACTCGQNRSIQQLAAQIERQLEMLPLPAPISISLSCETDCTEAALQDVGAIRTQAGWDIHIGGVRGTHARSGALFCVTENEDSTAGMIKGLIQYYRETDHYLEGVHQWIDRLGIVHIREVLFEEDLRAQLLESLQTDLSLIQNPTVETGAYKK | not soluble
MAHHHHHHMKKKGCHSDRKHCQKHVQAELCLFILHSVLRKCPNKMVHSILQNSHGNIRKKFEISLKHETSTPAPQKRRREVLLKRKTNSKRGNRA | not soluble
MGSDKIHHHHHHMPAFIKKELIMKLQGAGLGYRRNLAEDFLQLPSNNAIQFIEVAPENWSKMGGMARYQFDQAAERFPLAVHGLSLSLGGQAPLDRELLRNTKALINQYNSSFFSEHLSYCECEGHLYDLLPMPFTEEAVKHVAQRIRDVQDFLGLQISLENTSYYLHSPTSTMNEVEFLNAIAQEADCGIHLDVNNIYVNGVNHGLLDPYIFLDQVDVKRVNYIHIAGHDEEHSAAQVVENSANESFNKVKGAYRHLPELLIDTHGEAVKGTVWDLLEYAYQRLPTIPPTLLERDFNFPPFAELYAEVEHIAQLQQKYAHTEVMSYAA | not soluble
MMNQSRIKPVRMLILLRKLSPISRRIRIRNRLKQKTRSATIKSRCNPCLISVLANCYWCSSSASPPSGAATTACGGKNGSGLDSRVAFTGDNGAERTDPGVKTPGVSGQSEKG | not soluble
SMGRRCQAQVSRRISFSASHRLYSKFLSDEENLKLFGKCNNPNGHGHNYKVVVTVHGEIDPATGMVMNLADLKKYMEEAIMQPLDHKNLDMDVPYFADVVSTTENVAVYIWDNLQKVLPVGVLYKVKVYETDNNIVVYKGE | soluble
GMELKSAEEKSLYYRNKIKEVIDEVGKVVVGQKYMINRLLIGICTGGHILLEGVPGLAKTLSVNTLAKTMDLDFHRIQFTPDLLPSDLIGTMIYNQHKGNFEVKKGPVFSNFILADEVNRSPAKVQSALLECMQEKQVTIGDTTYPLDNPFLVLATQNPVEQEGTYPLPEAQVDRFMMKIHLTYLDKESELEVMRRVSNMNFNYQVQKIVSKNDVLEIRNEINKVTISESLEKYIIELVFATRFPAEYGLEAEASYILYGASTRAAINLNRVAKAMAFFNNRDYVLPEDIKEVAYDILNHRIILNYEAEAEGISTRQIIETILRKVNITKA | soluble
MNIFVNMRIMVAHTPDPDDAFMFYGMFEGKIRTSNQYEQVIKDIETLNKESKEGKYEVTAISANGYVQVRDLYKLTRSGASFGISYGPIVVARNEIDLSKSRMGVPGFMTSSYLLYRMFGPEAKEYVEIKFDEIPDAILTGKVDAGILIHDEQLTFQKRGLKEVFDIYSAWKSYAGNLPIPLGFNAIRKDLDEDTVNKFLYDFERSIRYAMAHEEEAVKYAMKYARYTDLDLERRFVRMYVNELSIDFGDTGRKALELYYNRAAGKGLIPPFKPEIV | not soluble
MSLTPDPAIDEVTARVYQIPTDAPEADGTLSWSSTTLVLAEVAAGGRRGIGYTYGDGACAQLITGALAGSVTGHSALDVAARWQAMVRAMRNNGRPGLVSCAISAVDTALWDLKGKLLGLPVCRLLGMAHDSVPIYGSGGFTSYDDNATRAQLERWVHEWRIPRVKIKIGESWGSHERRDLDRIALARTVIGPDTELYVDANGGYRRKQAIRMAHAMAGHDVTWFEEPVSSDDLAGLREVRDQVSADVTAGEYGYDLAYFHRMLAADAVDCLQIDVTRCGGITDWLRAAAVAAAHNVDVSGHCAPNLHAHVATAVANLRHLEYFHDHHRIEQMFFDGALSPQGGVLRPDQQRPGFGLEFKQRDADRYRMREGHHHHHH | soluble
MNNIWWQTKGQGNVHLVLLHGWGLNAEVWRCIDEELSSHFTLHLVDLPGFGRSRGFGALSLADMAEAVLQQAPDKAIWLGWSLGGLVASQIALTHPERVQALVTVASSPCFSARDEWPGIKPDVLAGFQQQLSDDFQRTVERFLALQTMGTETARQDARALKKTVLALPMPEVDVLNGGLEILKTVDLRQPLQNVSMPFLRLYGYLDGLVPRKVVPMLDKLWPHSESYIFAKAAHAPFISHPAEFCHLLVALKQRV | soluble
MLTPMFCLAHISDMHLSPLPKPSFFELFGKRLTGYLNWQKKRKGQMATNTLETLIEALKKKNPDHLVISGDLVNLALDKEFEQARNWLLNQGQPQNISLTFGNHDAYVRGAFQKACTLFQPWITGDFPQKNAPPFPYIRIRKNVAIIGASSAIATPPFQASGYFGKMQAQALSQLLNEAARRNLFRVIMIHHPPFHHATSWHKKLWGIERFLEVIKHHGCELILHGHTHLPTLNIIKGKMGKIPIVGVASAAQAFGDTPPPAGFNFFSIEQFNQQWHCQLQRYSLINQNNEVACTETIDLLEHHHHHH | not soluble
MRGSHHHHHHSNFAIILAAGKGTRMKSDLPKVLHKVAGISMLEHVFRSVGAIQPEKTVTVVGHKAELVEEVLAGQTEFVTQSEQLGTGHAVMMTEPILEGLSGHTLVIAGDTPLITGESLKNLIDFHINHKNVATILTAETDNPFGYGRIVRNDNAEVLRIVEQKDATDFEKQIKEINTGTYVFDNERLFEALKNINTNNAQGEYYITDVIGIFRETGEKVGAYTLKDFDESLGVNDRVALATAESVMRRRINHKHMVNGVSFVNPEATYIDIDVEIAPEVQIEANVILKGQTKIGAETVLTNGTYVVDSTIGAGAVITNSMIEESSVADGVTVGPYAHIRPNSSLGAQVHIGNFVEVKGSSIGENTKAGHLTYIGNCEVGSNVNFGAGTITVNYDGKNKYKTVIGDNVFVGSNSTIIAPVELGDNSLVGAGSTITKDVPADAIAIGRGRQINKDEYATRLPHHPKNQ | soluble
LSFSSAVKNELCRVETDRSSSLFELAAAARISGLIKVVNANEINLRLVTENAAFARRIFSQIKDLYGINAEISIRRSPKLKKNIVYIIVLTSSKGLMRILEDINIKVSEKVEYIPYARCMRKKEYRKAYLRGAFLASGSMSDPEKTYHLEITCHNMALATEVSDLMDSFKLHSKVTKRKGNYVVYLKEGENIVDFLNIIGAHSALLELENIRILKEMRNNVNRIVNCETANLQKTVDASVRQVENINYIKEHLGFDKLPENLREIAKMRLAYSDATLKELGEMLNPPLGKSGVNHRLRKLDKIAESLRNMKGEL | soluble
GPGSMRDHAPTSAASATALVNPSLPNSSVVDASLTGAQKKSGASSTRQRPPTPLPSTTPPRSEQHYRMTETEAWLSASFGNLATMGDSNGNSGGARRHGGPSPSAAFPLTFQEVPAAVVNHLLSRITLIQSEEQRHRDAVTVEGREVSGSPEMADGAPLPTRNECRAIGEFMLANDTLLGRRPREGIDASACAPSALRLVSMPLFGDHRLATYSPQGAAANRRRRRRSKNRRAAGGGGDDVGELPCLATGNAGLAEPQEARGNGAGATPSTTSHPYSPRTFFVATQSHDVRRRLAAVTPLLRLTTNPDALWIEQRGTAYHYGEEGAEARRPHIDMKGLGNCSSFSVAAAASSRGGRGSSEPGPPRSASFSHTPSFPHAATATTTVIAAAPQLSRADVAFMKHLGTAAEVPLPAKPSHHPHQQEQQQLQLRASPASDTGVSNRAPVDRKRRRQKGQNPLSMKKKQRREVFRAH | not soluble
MGSDKIHHHHHHMKDILVHIDDSERCSARLDIAIGLAKTFGARLTGLFARTESHRPSAVAHKASDQLTQARDAAKEAFTKACASAGITSRWWQLAHGEPGHVVSETMFCARYADLVVMGQTEPKSKIVPEEMVEHVILHCGRPVLVVPHTGSFPSVGERMALAWNAGKEAVRALNDAKPLMLKAKSVTVLSLRGPADDGSNAMGEVPQVDVLDHLAACGITASAERLAGEHIGKMDMLLSRLCDLGADLVVMGAHGHYGLSLKRGTGTRYVLAHMTVPVLMSN | not soluble
GSHMASTPDKFNDGNLNIAYAKPTTQSSVDYNGDPNRAVDGNRNGNFNSGSVTHTRADNPSWWEVDLKKMDKVGLVKIYNRTDAETQRLSNFDVILYDNNRNEVAKKHVNNLSGESVSLDFKEKGARYIKVKLLTSGVPLSLAEVEVFRES | soluble
MENNNGFADMADYLGKLSQVDATKLSIESLTAAANFYMEKLLPNIPKSLLKKKHMVDQVKVNIKDNEVQVAFEDTAFYWRFAENGTVNQKAQHFASGTFEQNKDQIEKIMTQQILDLWKG | soluble
MGSDKIHHHHHHMLDVVANQDKSIVVKQLRYGRDNEVLVVDEWQLHPAEHWAIFATDSYCGSLLGRILTGDIQPDEGTIAGLPQRIGWVSLGLQQVLLERELEKDELDYGSSVEFLVLECCQDAAQLAPLLQKVGLEPLRLRGFRQLSTGETRRVMLARALAMLPQLLILDDPYAGLDVEHQASLSELLSEVAEHTQLLIITSRQEELPPCISHVALFNGEMLKSGQSVHKLSQPMSIEQWHNHPVMAQLNALSAQRSNELLALMERQRHNAEAFDPLVEIKNGKVEYVSGLIFSGVNWRIEAGQHWQVRGPNGCGKSTLLGLILGDHPQCYSNDITLFGRPRGSGESIWQIKQRIGIVSSALHLQYRVSCSVLDVLLSGFFDSIGLYQKPTKPQLDLAKEWLAILHMTGLASTSFKKLDYGQQRLLLIGRALIKQPLLLILDEPYQGLDFINRTLVMRALKMIAEHHLSQLLYVSHHREDALPAIHHFVDFIKQGDGYSVQVSDSESKD | not soluble
MNLFQNLALKYSHTMMEKSLQKGFNVELLKQPEEKIPKQDKSYMLYAHVPFCHTFCPYCSFHKYYYDENLAKVYFQNLREEIKIMKNKGFDFTSMYVGGGTTLIDEEELLKTLELCKKLFNIKEISCESDPNHIDPNKLSMFKGIIDRLSCGIQSFDDETLKKVARYNKFGSSKELQEKISKALGILPIFSIDLIFNLPGQNEKQLLNDLEIAKNLAPQQITTYPLMKSNLTKDNIAKSLGVSIKDNEFTYYQIIREFFKDYTQNNGWSFSLEKNKLNDEYVSSHHEYLGVGSGAFSFLDGELLINAFNLNDYAKFIQEKQNANIAKACFDKKEIIKYVFLTGIFSGKIEIDKFNKTLNCNLEKELFIELLGLKTSGAIIKDQNALIATEFGQYLFVVLMKDFYTGMDLVRAVFRDDKRLKNKDYIDIMKENIDPLNSASMEFKAETN | not soluble
